# Test results as given in doi:10.1101/2025.03.25.645380, “Extracellular Nanobody Screening using Conformationally Stable GPCR” (bioRxiv, 2025).
# Experiments:
# [1] = target: T1, M1R-G11CT (Homo sapiens (from template PDB 6OIJ), UniProt P11229, chimera); assay: flow cytometry on cells; nanobody displayed on yeast, single colonies; stained with 10 nM fluorescence-labeled purified FLAG-tagged receptor (atropine-bound M1R-Clip1 or iperoxo-bound M1R-G11CT), Alexa Fluor-647 anti-FLAG and Alexa Fluor-488 anti-HA; selection buffer 20 mM HEPES pH 7.5, 100 mM NaCl, 0.05% MNG, 0.005% CHS, 2 mM CaCl2, 0.1% BSA, 0.2% maltose; conditions: one partner purified
# T1 construct: M1 muscarinic acetylcholine receptor (M1R), N-terminal part through TM5 up to the fusion site T215 (5.65); de novo designed fusion protein (RFdiffusion, ProteinMPNN, AlphaFold2) put between T215 and A364 in place of ICL3; M1 muscarinic acetylcholine receptor (M1R), from the fusion site A364 (6.34) in TM6 to the C-terminus of the receptor; 2×GGSGG linker between the C-terminus of the receptor and …
# [2] = target: T1, M1R-G11CT; assay: cryo-EM structure; purified M1R-nanobody complexes on Au Quantifoil grids; Nb1B4 with M1R-G11CT and iperoxo, NbA12 with M1R-Clip1 and atropine; conditions: both partners purified
# Target sequence in this assay (P11229 whole entry, stated change not applied, the tested form may be a part): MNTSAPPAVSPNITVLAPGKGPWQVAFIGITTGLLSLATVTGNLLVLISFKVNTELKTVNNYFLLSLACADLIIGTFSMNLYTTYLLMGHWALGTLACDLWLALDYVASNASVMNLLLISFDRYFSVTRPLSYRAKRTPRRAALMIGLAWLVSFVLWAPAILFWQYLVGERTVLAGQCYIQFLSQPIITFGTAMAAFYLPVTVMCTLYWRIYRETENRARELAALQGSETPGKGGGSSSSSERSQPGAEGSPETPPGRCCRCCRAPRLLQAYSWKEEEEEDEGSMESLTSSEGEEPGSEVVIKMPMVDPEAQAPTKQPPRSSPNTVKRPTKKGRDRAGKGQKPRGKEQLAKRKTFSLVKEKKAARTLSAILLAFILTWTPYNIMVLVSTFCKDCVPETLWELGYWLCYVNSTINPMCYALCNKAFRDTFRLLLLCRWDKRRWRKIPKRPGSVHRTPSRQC
Binder,binding result [1],binding result [2]
"Nb1B4 displayed on yeast (VHH, Yeast display fusion; also called active-state selective nanobody) VHH: QVQLQESGGGLVQAGGSLRLSCAASGSIFYGYYMGWYRQAPGKEREFVATINYGASTNYADSVKGRFTISRDNAKNTVYLQMNSLKPEDTAVYYCAVRRVYVYVQRYYHYYWGQGTQVTVSS",binds,–
"Nb1B4, purified (VHH, also called active-state selective nanobody; source: E. coli BL21(DE3) periplasm or HEK293F supernatant, purified (Ni-NTA, SEC)) VHH: QVQLQESGGGLVQAGGSLRLSCAASGSIFYGYYMGWYRQAPGKEREFVATINYGASTNYADSVKGRFTISRDNAKNTVYLQMNSLKPEDTAVYYCAVRRVYVYVQRYYHYYWGQGTQVTVSS",–,binds
